Series [1] deals with the molecule itself. Nature of the series: native MS; PF4 incubated with UFH, SEC sub-fractions of the small complexes; 150 mM ammonium acetate, pH 6.9; masses by limited charge reduction.
The target in series [2] is T1, recombinant form of human platelet factor 4 (PF4) (human, UniProt P02776).
T1 construct: platelet factor 4 (PF4), human, recombinant; stands as a tetramer in the complexes; also called recombinant PF4; PF4 tetramer
The series can be described thus: native MS; PF4·dp20 complexes incubated with a nearly equimolar amount of KKO (0.28 mg/mL and 0.06 mg/mL); 150 mM ammonium acetate, pH 6.9. To be noted: both partners purified.

Series [3] addresses T1, recombinant form of human platelet …. The series can be described thus: native MS; highest-MW SEC sub-fraction of PF4/UFH small complexes incubated with a nearly equimolar amount of KKO (antibody excess up to 33% also tested); 150 mM ammonium acetate, pH 6.9; limited charge reduction. The note with it: both partners purified.

“And” between values parts separate entries of the source, which are not always exact repeats. Equal values may be shown once.

B1: recombinant form of human platelet factor 4 (PF4) (natural protein)
chain: EAEEDGDLQCLCVKTTSQVRPRHITSLEVIKAGPHCPTAQLIATLKNGRKICLDLQAPLYKKIIKKLLES
notes: platelet factor 4 (PF4), human, recombinant; stands as a tetramer in the complexes; also called recombinant PF4; PF4 tetramer
Take B1: in series [1], the “stoichiometry N” value is 4 subunits (tetramer).

B2: KKO monoclonal anti-PF4/heparin antibody (antibody, V domains shown)
VH: VQLQQSGAELVKPGASVKLSCKASGYTFTNYFIYWVKQRPGQGLEWIGEINPRNGDTDFNEKFESRATLTVDKSSSTAYMQLSSLTSEDSAIYYCTRSPYGNNYGFTYWGQGTLVTVSA
VL: DIQMIQSQKFMSTSVGDRVTVTCKASQNVGTNVAWYQQKPGQSPNALIYSASYRYSGVPDRFTGSGSGTDFTLTITNVQSEDLADYFCQQYNSYPLTFGTGTKLDLK
notes: Whole IgG (measured 152.5 kDa); also called KKO mAb; KKO hybridoma clone 31.2.57.A7; source: KKO hybridoma clone 31.2.57.A7 (ATCC), supernatant, purified (Protein A Sepharose)
In the case of B2, the “stoichiometry N” value in series [2] is 1 PF4 tetramer per KKO and 2 PF4 tetramers per KKO; in series [3], 1 KKO per complex of one heparin chain and two PF4 tetramers and 2 KKO per complex of one heparin chain and three PF4 tetramers.

The record behind these values is article PMC10928113, “Molecular architecture and platelet-activating properties of small immune complexes assembled on heparin and platelet factor 4” (Communications Biology, 2024).
